Tests used:
[1] = western blot of acetone-precipitated HEK293 medium; details: glycan lost; control: wild-type IFNλ4-FLAG
[2] = IFNλ activity of supernatant, Mx1-luciferase reporter, HEK293+IFNλR1; details: glycan lost; control: wild-type IFNλ4-FLAG

B1: IFNλ4 (interferon lambda 4): N61D (protein)
parent chain: MRPSVWAAVAAGLWVLCTVIAAAPRRCLLSHYRSLEPRTLAAAKALRDRYEEEALSWGQRNCSFRPRRDPPRPSSCARLRHVARGIADAQAVLSGLHRSELLPGAGPILELLAAAGRDVAACLELARPGSSRKVPGAQKRRHKPRRADSPRCRKASVVFNLLRLLTWELRLAAHSGPCL
With B1 the expression_or_secretion [1] was “decreases” and the expression_or_secretion [2] was “decreases”.

— PMC3844954
